According to patent US20140213531A1 (POLYPHOR, published 2014):

Key:
Assay in all cases: cell-based or functional assay
Chymase, from human skin = molecular target: T1, Chymase, from human skin (human, UniProt P23946 22-247)
T1 sequence (looked up): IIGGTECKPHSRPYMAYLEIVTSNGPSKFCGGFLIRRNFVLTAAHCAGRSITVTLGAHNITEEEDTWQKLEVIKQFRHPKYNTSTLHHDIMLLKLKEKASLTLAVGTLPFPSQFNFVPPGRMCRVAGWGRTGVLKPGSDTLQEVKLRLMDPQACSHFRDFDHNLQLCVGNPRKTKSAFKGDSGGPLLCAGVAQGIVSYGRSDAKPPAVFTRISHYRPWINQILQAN

[1] = molecular target: Trypsin, Iodination grade, from human pancreas (human, UniProt P07477 24-247)
[2] = molecular target: T2, CathepsinG, from human neutrophils (human, UniProt P08311 21-244)
T2 sequence (looked up): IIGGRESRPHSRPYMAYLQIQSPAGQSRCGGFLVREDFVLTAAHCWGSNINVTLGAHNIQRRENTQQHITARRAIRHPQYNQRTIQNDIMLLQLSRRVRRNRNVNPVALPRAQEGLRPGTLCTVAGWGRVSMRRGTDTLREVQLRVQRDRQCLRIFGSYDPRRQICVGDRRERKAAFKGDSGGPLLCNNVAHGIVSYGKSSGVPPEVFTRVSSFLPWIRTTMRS

[3] = molecular target: Coagulation Factor Xa, from human plasma (human, UniProt P00742 41-488, limits assumed)
[4] = molecular target: Tryptase, from human lung (human, UniProt Q15661 31-275, limits assumed)
[5] = molecular target: Chymotrypsin, from human pancreas (human, UniProt P17538 19-263)
[6] = molecular target: T3, Elastase from human neutrophils (human, UniProt P08246 30-247, limits assumed)
T3 sequence (looked up): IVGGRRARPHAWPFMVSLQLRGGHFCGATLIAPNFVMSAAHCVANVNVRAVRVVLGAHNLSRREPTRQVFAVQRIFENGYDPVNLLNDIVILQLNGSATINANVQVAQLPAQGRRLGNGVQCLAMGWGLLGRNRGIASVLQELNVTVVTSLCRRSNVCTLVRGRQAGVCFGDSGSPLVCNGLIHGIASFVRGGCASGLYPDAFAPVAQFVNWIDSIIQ

[7] = molecular target: Thrombin, from Human Plasma, high activity (human, UniProt P00734 328-622)
[8] = molecular target: Urokinase from human urine (human, UniProt P00749 21-431, limits assumed)

Sequence of Chymotrypsin, from human pancreas (P17538 19-263): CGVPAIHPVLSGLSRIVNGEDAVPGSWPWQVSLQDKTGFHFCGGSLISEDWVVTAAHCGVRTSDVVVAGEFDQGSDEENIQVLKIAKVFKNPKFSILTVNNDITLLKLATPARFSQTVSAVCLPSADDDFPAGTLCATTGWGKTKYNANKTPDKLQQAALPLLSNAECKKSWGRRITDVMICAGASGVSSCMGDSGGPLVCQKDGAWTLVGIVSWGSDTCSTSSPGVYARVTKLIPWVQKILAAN
Sequence of Coagulation Factor Xa, from human plasma (P00742 41-488 limits assumed): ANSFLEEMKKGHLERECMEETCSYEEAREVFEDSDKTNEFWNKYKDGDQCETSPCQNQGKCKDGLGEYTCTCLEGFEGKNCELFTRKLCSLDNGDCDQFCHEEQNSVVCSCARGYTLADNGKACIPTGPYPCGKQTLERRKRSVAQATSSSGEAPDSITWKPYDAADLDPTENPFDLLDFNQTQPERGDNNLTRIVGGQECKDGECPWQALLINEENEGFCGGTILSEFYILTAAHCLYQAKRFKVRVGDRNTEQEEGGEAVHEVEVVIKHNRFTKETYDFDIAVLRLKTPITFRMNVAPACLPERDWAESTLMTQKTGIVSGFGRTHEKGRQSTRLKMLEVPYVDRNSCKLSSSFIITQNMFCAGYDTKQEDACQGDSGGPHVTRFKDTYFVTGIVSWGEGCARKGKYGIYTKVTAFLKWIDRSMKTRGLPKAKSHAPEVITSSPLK
Sequence of Tryptase, from human lung (Q15661 31-275 limits assumed): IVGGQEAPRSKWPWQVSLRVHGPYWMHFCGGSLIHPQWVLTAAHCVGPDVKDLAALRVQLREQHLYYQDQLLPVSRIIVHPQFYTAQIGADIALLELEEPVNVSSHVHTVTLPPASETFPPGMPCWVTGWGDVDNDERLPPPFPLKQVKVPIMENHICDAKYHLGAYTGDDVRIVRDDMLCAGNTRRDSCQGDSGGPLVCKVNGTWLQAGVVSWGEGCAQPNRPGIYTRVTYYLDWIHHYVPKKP

% inhibition at 100 µM (Chymase, from human skin) [%]	% inhibition at 100 µM [1] [%]	IC50 [2] [nmol]	% inhibition at 100 µM [3] [%]	% inhibition at 100 µM [4] [%]	% inhibition at 100 µM [5] [%]	IC50 [6] [nmol]	% inhibition at 100 µM [7] [%]	% inhibition at 100 µM [8] [%]	Binder
0	94	38	0	34	7	> 100000	2	2	XCTKSDPPICD (HELM PEPTIDE1{[O=C([C@@H](N[*:1])C1CCCCC1)[*:2]].C.T.K.S.D.P.P.I.C.D.[dP].P}$PEPTIDE1,PEPTIDE1,2:R3-10:R3|PEPTIDE1,PEPTIDE1,1:R1-13:R2$$$V2.0; SMILES CC[C@H](C)[C@@H]1NC(=O)[C@@H]2CCCN2C(=O)[C@@H]2CCCN2C(=O)[C@H](CC(=O)O)NC(=O)[C@H](CO)NC(=O)[C@H](CCCCN)NC(=O)[C@H]([C@@H](C)O)NC(=O)[C@@H]2CSSC[C@H](NC1=O)C(=O)N[C@@H](CC(=O)O)C(=O)N1CCC[C@@H]1C(=O)N1CCC[C@H]1C(=O)N[C@@H](C1CCCCC1)C(=O)N2) [Example 39]
8	94	25	3	33	19	> 44900	1	10	XCTKSDPPICY (HELM PEPTIDE1{[O=C([C@@H](N[*:1])C1CCCCC1)[*:2]].C.T.K.S.D.P.P.I.C.Y.[dP].P}$PEPTIDE1,PEPTIDE1,2:R3-10:R3|PEPTIDE1,PEPTIDE1,1:R1-13:R2$$$V2.0; SMILES CC[C@H](C)[C@@H]1NC(=O)[C@@H]2CCCN2C(=O)[C@@H]2CCCN2C(=O)[C@H](CC(=O)O)NC(=O)[C@H](CO)NC(=O)[C@H](CCCCN)NC(=O)[C@H]([C@@H](C)O)NC(=O)[C@@H]2CSSC[C@H](NC1=O)C(=O)N[C@@H](Cc1ccc(O)cc1)C(=O)N1CCC[C@@H]1C(=O)N1CCC[C@H]1C(=O)N[C@@H](C1CCCCC1)C(=O)N2) [Example 40]
1	96	31	0	11	4	> 100000	0	1	XCTKSDPPICT (HELM PEPTIDE1{[O=C([C@@H](N[*:1])C1CCCCC1)[*:2]].C.T.K.S.D.P.P.I.C.T.[dP].P}$PEPTIDE1,PEPTIDE1,2:R3-10:R3|PEPTIDE1,PEPTIDE1,1:R1-13:R2$$$V2.0; SMILES CC[C@H](C)[C@@H]1NC(=O)[C@@H]2CCCN2C(=O)[C@@H]2CCCN2C(=O)[C@H](CC(=O)O)NC(=O)[C@H](CO)NC(=O)[C@H](CCCCN)NC(=O)[C@H]([C@@H](C)O)NC(=O)[C@@H]2CSSC[C@H](NC1=O)C(=O)N[C@@H]([C@@H](C)O)C(=O)N1CCC[C@@H]1C(=O)N1CCC[C@H]1C(=O)N[C@@H](C1CCCCC1)C(=O)N2) [Example 38]
1	92	51	4	68	0	> 100000	0	4	FCTKSDPPICN (HELM PEPTIDE1{F.C.T.K.S.D.P.P.I.C.N.[dP].P}$PEPTIDE1,PEPTIDE1,2:R3-10:R3|PEPTIDE1,PEPTIDE1,1:R1-13:R2$$$V2.0; SMILES CC[C@H](C)[C@@H]1NC(=O)[C@@H]2CCCN2C(=O)[C@@H]2CCCN2C(=O)[C@H](CC(=O)O)NC(=O)[C@H](CO)NC(=O)[C@H](CCCCN)NC(=O)[C@H]([C@@H](C)O)NC(=O)[C@@H]2CSSC[C@H](NC1=O)C(=O)N[C@@H](CC(N)=O)C(=O)N1CCC[C@@H]1C(=O)N1CCC[C@H]1C(=O)N[C@@H](Cc1ccccc1)C(=O)N2) [Example 3]
12	98	34	8	76	15	> 100000	10	15	XCTKSDPPICN (HELM PEPTIDE1{[Nc1ccc(C[C@H](N[*:1])C(=O)[*:2])cc1].C.T.K.S.D.P.P.I.C.N.[dP].P}$PEPTIDE1,PEPTIDE1,2:R3-10:R3|PEPTIDE1,PEPTIDE1,1:R1-13:R2$$$V2.0; SMILES CC[C@H](C)[C@@H]1NC(=O)[C@@H]2CCCN2C(=O)[C@@H]2CCCN2C(=O)[C@H](CC(=O)O)NC(=O)[C@H](CO)NC(=O)[C@H](CCCCN)NC(=O)[C@H]([C@@H](C)O)NC(=O)[C@@H]2CSSC[C@H](NC1=O)C(=O)N[C@@H](CC(N)=O)C(=O)N1CCC[C@@H]1C(=O)N1CCC[C@H]1C(=O)N[C@@H](Cc1ccc(N)cc1)C(=O)N2) [Example 31]
0	95	39	6	0	32	> 100000	12	1	XCTKSDPPICT (HELM PEPTIDE1{[O=C([C@H](CCc1ccccc1)N[*:1])[*:2]].C.T.K.S.D.P.P.I.C.T.[dP].P}$PEPTIDE1,PEPTIDE1,2:R3-10:R3|PEPTIDE1,PEPTIDE1,1:R1-13:R2$$$V2.0; SMILES CC[C@H](C)[C@@H]1NC(=O)[C@@H]2CCCN2C(=O)[C@@H]2CCCN2C(=O)[C@H](CC(=O)O)NC(=O)[C@H](CO)NC(=O)[C@H](CCCCN)NC(=O)[C@H]([C@@H](C)O)NC(=O)[C@@H]2CSSC[C@H](NC1=O)C(=O)N[C@@H]([C@@H](C)O)C(=O)N1CCC[C@@H]1C(=O)N1CCC[C@H]1C(=O)N[C@@H](CCc1ccccc1)C(=O)N2) [Example 28]
3	100	31	9	50	24	> 10000	9	14	XCTKSDPPICY (HELM PEPTIDE1{[Nle].C.T.K.S.D.P.P.I.C.Y.[dP].P}$PEPTIDE1,PEPTIDE1,2:R3-10:R3|PEPTIDE1,PEPTIDE1,1:R1-13:R2$$$V2.0; SMILES CCCC[C@@H]1NC(=O)[C@@H]2CCCN2C(=O)[C@H]2CCCN2C(=O)[C@H](Cc2ccc(O)cc2)NC(=O)[C@@H]2CSSC[C@H](NC1=O)C(=O)N[C@@H]([C@@H](C)O)C(=O)N[C@@H](CCCCN)C(=O)N[C@@H](CO)C(=O)N[C@@H](CC(=O)O)C(=O)N1CCC[C@H]1C(=O)N1CCC[C@H]1C(=O)N[C@@H]([C@@H](C)CC)C(=O)N2) [Example 44]
